Source: patent US20260069656A1, “Nutritive Polypeptides and Formulations Thereof, and Methods of Production and Use Thereof” (Axcella Health Inc., priority 2013, published 2026)

B1: SEQID-00418: nutritive polypeptide (protein)
chain: VPRVRRQGASSSFDYKSQIVRGVNLGGWLVTEPWITPSLYDSTGGGAVDEWTLCQILGKDEAQAKLSSHWSSFITQSDFDRMAQAGLNHVRIPIGYWAVAPIDGEPYVSGQIDYLDQAVTWARAAGLKVLVDLHGAPGSQNGFDNSGHRGPIQWQQGDTVNQTMTAFDALARRYAQSDTVTAIEAVNEPNIPGGVNEDGLKNYYYGALADVQRLNPSTTLFMSDGFQPVESWNGFMQGSNVVMDTHHYQVFDTGLLSMSIDDHVKTACSLATQHTMQSDKPVVVGEWTGALTDCAKYLNGVGNAARYDGTYMSTTKYGDCTGKSTGSVADFSADEKANTRRYIEAQLEAYEMKSGWLFWTWKTEGAPGWDMQDLLANQLFPTSPTDRQYPHQCS
modifications: Aspergillus niger; strain CBS 513.88 / FGSC A1513
B2: SEQID-00418 (E. coli): nutritive polypeptide (protein)
chain: VPRVRRQGASSSFDYKSQIVRGVNLGGWLVTEPWITPSLYDSTGGGAVDEWTLCQILGKDEAQAKLSSHWSSFITQSDFDRMAQAGLNHVRIPIGYWAVAPIDGEPYVSGQIDYLDQAVTWARAAGLKVLVDLHGAPGSQNGFDNSGHRGPIQWQQGDTVNQTMTAFDALARRYAQSDTVTAIEAVNEPNIPGGVNEDGLKNYYYGALADVQRLNPSTTLFMSDGFQPVESWNGFMQGSNVVMDTHHYQVFDTGLLSMSIDDHVKTACSLATQHTMQSDKPVVVGEWTGALTDCAKYLNGVGNAARYDGTYMSTTKYGDCTGKSTGSVADFSADEKANTRRYIEAQLEAYEMKSGWLFWTWKTEGAPGWDMQDLLANQLFPTSPTDRQYPHQCS
modifications: Aspergillus niger; strain CBS 513.88 / FGSC A1513
B3: SEQID-00420: nutritive polypeptide (protein)
chain: AAAPLEKRSCTFTSASAAKSGKSSCSTITLDNIAVPAGETLDLTGLKKGTTVIFEGETTFGYKEWKGPLISMSGTDITVKQASGAKINCDGARWWDGKGSNGGKTKPKFFQAHKLDQSSITGLKVYNTPVQGFSILADHLTITDVTIDNSAGTSKGHNTDAFDIGQSTYITIDGATVYNQDDCLAINSGEHITFTNGYCDGGHGLSIGSIGGRSDNTVNDVTISNSKVLNSQNGVRIKTIYGKTGTVENVKFEDITLSDISKYGIVVEQDYENGSPTGTPTNGVKVEDITFKKVTGSVKSSGTDIYILCGSGSCSNWTWSGVDVTGGKKSSKCKNVPSGASCSD
modifications: Aspergillus niger; strain CBS 513.88 / FGSC A1513
B4: SEQID-00546: protein of the 168 nutritive polypeptide library (protein, listed as Saccharomyces cerevisiae)
chain: MCSAGGIRRPIQIEEFKTAISGMSDMELAQIKTEIENSINHLQRSNARLGKYIAKLEGADDRLEADDSDDLENIDSGDLALYKDSVRENEIVLNNYNERVDALEQETVYRKTGHGKSKHEVEAKDNTNKGPDVDMDNSNVDVVTPNSIFI
modifications: strain ATCC 204508 / S288c
B5: SEQID-00001: nutritive polypeptide (protein, listed as Gallus gallus)
chain: MGSIGAASMEFCFDVFKELKVHHANENIFYCPIAIMSALAMVYLGAKDSTRTQINKVVRFDKLPGFGDSIEAQCGTSVNVHSSLRDILNQITKPNDVYSFSLASRLYAEERYPILPEYLQCVKELYRGGLEPINFQTAADQARELINSWVESQTNGIIRNVLQPSSVDSQTAMVLVNAIVFKGLWEKAFKDEDTQAMPFRVTEQESKPVQMMYQIGLFRVASMASEKMKILELPFASGTMSMLVLLPDEVSGLEQLESIINFEKLTEWTSSNVMEERKIKVYLPRMKMEEKYNLTSVLMAMGITDVFSSSANLSGISSAESLKISQAVHAAHAEINEAGREVVGSAEAGVDAASVSEEFRADHPFLFCIKHIATNAVLFFGRCVSP

Assay: Intact half-life during simulated gastric fluid (SGF) digestion
Settings: SGF pH 1.5, pepsin:polypeptide 1:20 w/w, 37° C.; produced in E. coli unless otherwise noted

| Molecule | SGF Half-life (t½) [min] |
| --- | --- |
| B1 | 0.2 |
| B2 | 0.5 |
| B3 | 1.2 |
| B4 | <10 |
| B5 | 5 |
